Assay results published in the supplement of paper PMC5998384.

What was measured:
HeLa Kyoto [1] = assay: thermal stability score vs G1/S (z-score of summed log2 fold changes over temperatures); higher = more thermally stable than in G1/S
HeLa Kyoto [2] = assay: melting temperature (median over replicates), in situ; higher = more thermally stable
HeLa Kyoto [3] = assay: solubility change mitosis vs G1/S (difference of NP-40 vs SDS log2 ratios) (log2 ratio difference); higher = more soluble in mitosis
HeLa Kyoto [4] = assay: solubility in G1/S (NP-40 vs SDS abundance) (log2 ratio); higher = more soluble; details: cell cycle stage: G1/S
[5] = cell cycle stage: early G1 (4.5 h after nocodazole release)
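Throughout, for melting temperature (median over replicates), in situ: HeLa Kyoto cells synchronized by double thymidine or nocodazole block, proteins quantified by TMT10plex mass spectrometry, three independent biological replicates.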
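Throughout, for solubility change mitosis vs G1/S (difference of NP-40 vs SDS log2 ratios): synchronized HeLa Kyoto cells (double thymidine block for G1/S, nocodazole release for mitosis), protein amounts in NP-40 versus SDS lysates quantified by mass spectrometry, three biological replicates.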
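Throughout, for solubility in G1/S (NP-40 vs SDS abundance): HeLa Kyoto cells arrested at G1/S by double thymidine block, proteins quantified by TMT10plex mass spectrometry in mild NP-40 versus SDS extracts, three biological replicates.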
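Throughout, for thermal stability score vs G1/S (z-score of summed log2 fold changes over temperatures): synchronized HeLa Kyoto cells, proteins quantified by TMT10plex mass spectrometry, three biological replicates, mitosis taken 0.5 h after nocodazole release, G1/S directly after double thymidine block.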

| Substance | thermal stability score (HeLa Kyoto [1]; [5]) | thermal stability score (HeLa Kyoto [1]; cell cycle stage: mitosis) | melting temperature (HeLa Kyoto [2]; cell cycle stage: G1/S) | melting temperature (HeLa Kyoto [2]; cell cycle stage: mitosis) | solubility change mitosis (log2) (HeLa Kyoto [3]) | solubility in G1/S (log2) (HeLa Kyoto [4]) |
| --- | --- | --- | --- | --- | --- | --- |
| MAKPAQGAKYRGSIHDFPGFDPNQDAEALYTAMKGFGSDKEAILDIITSRSNRQRQEVCQSYKSLYGKDLIADLKYELTGKFERLIVGLMRPPAYCDAKEIKDAISGIGTDEKCLIEILASRTNEQMHQLVAAYKDAYERDLEADIIGDTSGHFQKMLVVLLQGTREEDDVVSEDLVQQDVQDLYEAGELKWGTDEAQFIYILGNRSKQHLRLVFDEYLKTTGKPIEASIRGELSGDFEKLMLAVVKCIRSTPEYFAERLFKAMKGLGTRDNTLIRIMVSRSELDMLDIREIFRTKYEKSLYSMIKNDTSGEYKKTLLKLSGGDDDAAGQFFPEAAQVAYQMWELSAVARVELKGTVRPANDFNPDADAKALRKAMKGLGTDEDTIIDIITHRSNVQRQQIRQTFKSHFGRDLMTDLKSEISGDLARLILGLMMPPAHYDAKQLKKAMEGAGTDEKALIEILATRTNAEIRAINEAYKEDYHKSLEDALSSDTSGHFRRILISLATGHREEGGENLDQAREDAQVAAEILEIADTPSGDKTSLETRFMTILCTRSYPHLRRVFQEFIKMTNYDVEHTIKKEMSGDVRDAFVAIVQSVKNKPLFFADKLYKSMKGAGTDEKTLTRIMVSRSEIDLLNIRREFIEKYDKSLHQAIEGDTSGDFLKALLALCGGED [ANXA6] | 5.43 | 4.61 | 50 °C | 50 °C | -0.172 | 0.275 |
| MKEEVKGIPVRVALRCRPLVPKEISEGCQMCLSFVPGEPQVVVGTDKSFTYDFVFDPSTEQEEVFNTAVAPLIKGVFKGYNATVLAYGQTGSGKTYSMGGAYTAEQENEPTVGVIPRVIQLLFKEIDKKSDFEFTLKVSYLEIYNEEILDLLCPSREKAQINIREDPKEGIKIVGLTEKTVLVALDTVSCLEQGNNSRTVASTAMNSQSSRSHAIFTISLEQRKKSDKNSSFRSKLHLVDLAGSERQKKTKAEGDRLKEGININRGLLCLGNVISALGDDKKGGFVPYRDSKLTRLLQDSLGGNSHTLMIACVSPADSNLEETLNTLRYADRARKIKNKPIVNIDPQTAELNHLKQQVQQLQVLLLQAHGGTLPGSITVEPSENLQSLMEKNQSLVEENEKLSRGLSEAAGQTAQMLERIILTEQANEKMNAKLEELRQHAACKLDLQKLVETLEDQELKENVEIICNLQQLITQLSDETVACMAAAIDTAVEQEAQVETSPETSRSSDAFTTQHALRQAQMSKELVELNKALALKEALARKMTQNDSQLQPIQYQYQDNIKELELEVINLQKEKEELVLELQTAKKDANQAKLSERRRKRLQELEGQIADLKKKLNEQSKLLKLKESTERTVSKLNQEIRMMKNQRVQLMRQMKEDAEKFRQWKQKKDKEVIQLKERDRKRQYELLKLERNFQKQSNVLRRKTEEAAAANKRLKDALQKQREVADKRKETQSRGMEGTAARVKNWLGNEIEVMVSTEEAKRHLNDLLEDRKILAQDVAQLKEKKESGENPPPKLRRRTFSLTEVRGQVSESEDSITKQIESLETEMEFRSAQIADLQQKLLDAESEDRPKQRWENIATILEAKCALKYLIGELVSSKIQVSKLESSLKQSKTSCADMQKMLFEERNHFAEIETELQAELVRMEQQHQEKVLYLLSQLQQSQMAEKQLEESVSEKEQQLLSTLKCQDEELEKMREVCEQNQQLLRENEIIKQKLTLLQVASRQKHLPKDTLLSPDSSFEYVPPKPKPSRVKEKFLEQSMDIEDLKYCSEHSVNEHEDGDGDDDEGDDEEWKPTKLVKVSRKNIQGCSCKGWCGNKQCGCRKQKSDCGVDCCCDPTKCRNRQQGKDSLGTVERTQDSEGSFKLEDPTEVTPGLSFFNPVCATPNSKILKEMCDVEQVLSKKTPPAPSPFDLPELKHVATEYQENKAPGKKKKRALASNTSFFSGCSPIEEEAH [KIF4A] | 4.91 | 8.64 | 45.7 °C | 48.8 °C | 0.00592 | 0.00342 |
| MWIQVRTMDGRQTHTVDSLSRLTKVEELRRKIQELFHVEPGLQRLFYRGKQMEDGHTLFDYEVRLNDTIQLLVRQSLVLPHSTKERDSELSDTDSGCCLGQSESDKSSTHGEAAAETDSRPADEDMWDETELGLYKVNEYVDARDTNMGAWFEAQVVRVTRKAPSRDEPCSSTSRPALEEDVIYHVKYDDYPENGVVQMNSRDVRARARTIIKWQDLEVGQVVMLNYNPDNPKERGFWYDAEISRKRETRTARELYANVVLGDDSLNDCRIIFVDEVFKIERPGEGSPMVDNPMRRKSGPSCKHCKDDVNRLCRVCACHLCGGRQDPDKQLMCDECDMAFHIYCLDPPLSSVPSEDEWYCPECRNDASEVVLAGERLRESKKKAKMASATSSSQRDWGKGMACVGRTKECTIVPSNHYGPIPGIPVGTMWRFRVQVSESGVHRPHVAGIHGRSNDGAYSLVLAGGYEDDVDHGNFFTYTGSGGRDLSGNKRTAEQSCDQKLTNTNRALALNCFAPINDQEGAEAKDWRSGKPVRVVRNVKGGKNSKYAPAEGNRYDGIYKVVKYWPEKGKSGFLVWRYLLRRDDDEPGPWTKEGKDRIKKLGLTMQYPEGYLEALANREREKENSKREEEEQQEGGFASPRTGKGKWKRKSAGGGPSRAGSPRRTSKKTKVEPYSLTAQQSSLIREDKSNAKLWNEVLASLKDRPASGSPFQLFLSKVEETFQCICCQELVFRPITTVCQHNVCKDCLDRSFRAQVFSCPACRYDLGRSYAMQVNQPLQTVLNQLFPGYGNGR [UHRF1] | 4.54 | 8.25 | 45.8 °C | 48.3 °C | 0.3 | -0.563 |
| MDSGSSSSDSAPDCWDQVDMESPGSAPSGDGVSSAVAEAQREPLSSAFSRKLNVNAKPFVPNVHAAEFVPSFLRGPTQPPTLPAGSGSNDETCTGAGYPQGKRMGRGAPVEPSREEPLVSLEGSNSAVTMELSEPVVENGEVEMALEESWEHSKEVSEAEPGGGSSGDSGPPEESGQEMMEEKEEIRKSKSVIVPSGAPKKEHVNVVFIGHVDAGKSTIGGQIMFLTGMVDKRTLEKYEREAKEKNRETWYLSWALDTNQEERDKGKTVEVGRAYFETERKHFTILDAPGHKSFVPNMIGGASQADLAVLVISARKGEFETGFEKGGQTREHAMLAKTAGVKHLIVLINKMDDPTVNWSIERYEECKEKLVPFLKKVGFSPKKDIHFMPCSGLTGANIKEQSDFCPWYTGLPFIPYLDNLPNFNRSIDGPIRLPIVDKYKDMGTVVLGKLESGSIFKGQQLVMMPNKHNVEVLGILSDDTETDFVAPGENLKIRLKGIEEEEILPGFILCDPSNLCHSGRTFDVQIVIIEHKSIICPGYNAVLHIHTCIEEVEITALISLVDKKSGEKSKTRPRFVKQDQVCIARLRTAGTICLETFKDFPQMGRFTLRDEGKTIAIGKVLKLVPEKD [GSPT2] | -1.05 | -1.43 |  | 53.5 °C | -0.124 | 0.153 |
| MPEEMDKPLISLHLVDSDSSLAKVPDEAPKVGILGSGDFARSLATRLVGSGFKVVVGSRNPKRTARLFPSAAQVTFQEEAVSSPEVIFVAVFREHYSSLCSLSDQLAGKILVDVSNPTEQEHLQHRESNAEYLASLFPTCTVVKAFNVISAWTLQAGPRDGNRQVPICGDQPEAKRAVSEMALAMGFMPVDMGSLASAWEVEAMPLRLLPAWKVPTLLALGLFVCFYAYNFVRDVLQPYVQESQNKFFKLPVSVVNTTLPCVAYVLLSLVYLPGVLAAALQLRRGTKYQRFPDWLDHWLQHRKQIGLLSFFCAALHALYSFCLPLRRAHRYDLVNLAVKQVLANKSHLWVEEEVWRMEIYLSLGVLALGTLSLLAVTSLPSIANSLNWREFSFVQSSLGFVALVLSTLHTLTYGWTRAFEESRYKFYLPPTFTLTLLVPCVVILAKALFLLPCISRRLARIRRGWERESTIKFTLPTDHALAEKTSHV [STEAP3] | -0.269 | -2.25 | 53.3 °C | 52.4 °C | -0.0119 | -0.128 |
| MDALQLANSAFAVDLFKQLCEKEPLGNVLFSPICLSTSLSLAQVGAKGDTANEIGQVLHFENVKDVPFGFQTVTSDVNKLSSFYSLKLIKRLYVDKSLNLSTEFISSTKRPYAKELETVDFKDKLEETKGQINNSIKDLTDGHFENILADNSVNDQTKILVVNAAYFVGKWMKKFSESETKECPFRVNKTDTKPVQMMNMEATFCMGNIDSINCKIIELPFQNKHLSMFILLPKDVEDESTGLEKIEKQLNSESLSQWTNPSTMANAKVKLSIPKFKVEKMIDPKACLENLGLKHIFSEDTSDFSGMSETKGVALSNVIHKVCLEITEDGGDSIEVPGARILQHKDELNADHPFIYIIRHNKTRNIIFFGKFCSP [SERPINB5] | 1.51 | 0.174 | 52.3 °C | 52.6 °C | -0.146 | 0.403 |
| SPTBN2 | 0.264 | -0.194 | 51.8 °C | 50.8 °C | 0.477 | -1.02 |
| MHPLQCVLQVQRSLGWGPLASVSWLSLRMCRAHSSLSSTMCPSPERQEDGARKDFSSRLAAGPTFQHFLKSASAPQEKLSSEVEDPPPYLMMDELLGRQRKVYLETYGCQMNVNDTEIAWSILQKSGYLRTSNLQEADVILLVTCSIREKAEQTIWNRLHQLKALKTRRPRSRVPLRIGILGCMAERLKEEILNREKMVDILAGPDAYRDLPRLLAVAESGQQAANVLLSLDETYADVMPVQTSASATSAFVSIMRGCDNMCSYCIVPFTRGRERSRPIASILEEVKKLSEQVFLPPRPPKVLGLQGLKEVTLLGQNVNSFRDNSEVQFNSAVPTNLSRGFTTNYKTKQGGLRFAHLLDQVSRVDPEMRIRFTSPHPKDFPDEVLQLIHERDNICKQIHLPAQSGSSRVLEAMRRGYSREAYVELVHHIRESIPGVSLSSDFIAGFCGETEEDHVQTVSLLREVQYNMGFLFAYSMRQKTRAYHRLKDDVPEEVKLRRLEELITIFREEATKANQTSVGCTQLVLVEGLSKRSATDLCGRNDGNLKVIFPDAEMEDVNNPGLRVRAQPGDYVLVKITSASSQTLRGHVLCRTTLRDSSAYC [CDK5RAP1] | 0.115 | 0.734 | 50.6 °C | 51 °C | -0.0868 | -0.0387 |
| MAANYSSTSTRREHVKVKTSSQPGFLERLSETSGGMFVGLMAFLLSFYLIFTNEGRALKTATSLAEGLSLVVSPDSIHSVAPENEGRLVHIIGALRTSKLLSDPNYGVHLPAVKLRRHVEMYQWVETEESREYTEDGQVKKETRYSYNTEWRSEIINSKNFDREIGHKNPSAMAVESFMATAPFVQIGRFFLSSGLIDKVDNFKSLSLSKLEDPHVDIIRRGDFFYHSENPKYPEVGDLRVSFSYAGLSGDDPDLGPAHVVTVIARQRGDQLVPFSTKSGDTLLLLHHGDFSAEEVFHRELRSNSMKTWGLRAAGWMAMFMGLNLMTRILYTLVDWFPVFRDLVNIGLKAFAFCVATSLTLLTVAAGWLFYRPLWALLIAGLALVPILVARTRVPAKKLE [TMEM43] | 3.06 | 4.18 | 53.5 °C | 53.1 °C | -0.244 | -0.206 |
| MSADAAAGAPLPRLCCLEKGPNGYGFHLHGEKGKLGQYIRLVEPGSPAEKAGLLAGDRLVEVNGENVEKETHQQVVSRIRAALNAVRLLVVDPETDEQLQKLGVQVREELLRAQEAPGQAEPPAAAEVQGAGNENEPREADKSHPEQRELRPRLCTMKKGPSGYGFNLHSDKSKPGQFIRSVDPDSPAEASGLRAQDRIVEVNGVCMEGKQHGDVVSAIRAGGDETKLLVVDRETDEFFKKCRVIPSQEHLNGPLPVPFTNGEIQKENSREALAEAALESPRPALVRSASSDTSEELNSQDSPPKQDSTAPSSTSSSDPILDFNISLAMAKERAHQKRSSKRAPQMDWSKKNELFSNL [SLC9A3R1] | -1.17 | -0.944 | 56.5 °C | 57.1 °C | -0.0214 | 0.536 |
